Reference: patent US20040138422A1 (published 2004)
*: point of attachment. Biotin = O=C1N[C@H]2[C@H](CS[C@H]2CCCCC(=O)*)N1

Legend:
[1] = biological target: CCR4 on CCR4-transfected B300.19 mouse lymphoma cells (human) (UniProt P51679); test: cell-based or functional assay
[2] = biological target: CCR4 on CCR4-transfected B300.19 mouse lymphoma cells (human) (UniProt P51679); test: FACS, CCR4-transfected B300.19 cells, biotinylated chemokine then FITC-avidin
[3] = biological target: T1, FITC-conjugated avidin (BD Biosciences) (UniProt P02701 25-152, FITC conjugate); test: FACS; avidin binds the biotin of the receptor-bound chemokine
T1 construct: Detection reagent; also called FITC-avidin; FITC-labeled avidin
Source text: After 2 repetitive washings using staining buffer, cells were fixed in PBS with 1% FCS 1% and 1% PFA before FACS analysis.

Sequence of CCR4 on CCR4-transfected B300.19 mouse lymphoma cells (human) (P51679 whole entry): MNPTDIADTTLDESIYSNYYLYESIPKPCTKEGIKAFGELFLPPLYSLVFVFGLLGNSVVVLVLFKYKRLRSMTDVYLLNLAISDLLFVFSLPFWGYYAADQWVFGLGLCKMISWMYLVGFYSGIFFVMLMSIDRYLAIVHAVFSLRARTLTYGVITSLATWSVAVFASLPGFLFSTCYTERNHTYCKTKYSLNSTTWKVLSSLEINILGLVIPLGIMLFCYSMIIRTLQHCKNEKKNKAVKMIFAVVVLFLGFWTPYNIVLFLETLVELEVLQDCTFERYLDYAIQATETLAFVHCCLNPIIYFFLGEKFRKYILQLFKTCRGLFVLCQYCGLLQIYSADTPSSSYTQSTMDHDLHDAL
T1 sequence (P02701 25-152 limits assumed): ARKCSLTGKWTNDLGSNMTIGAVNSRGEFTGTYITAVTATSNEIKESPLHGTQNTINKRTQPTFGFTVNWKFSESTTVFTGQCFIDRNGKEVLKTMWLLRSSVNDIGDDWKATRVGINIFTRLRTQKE

Row | Molecule | dose at which minimal migration is still detectable [1] [ng/mL] | dose for optimal migration of CCR4-transfected cells [1] [ng/mL] | MFI [2] | binding result [3]
1 | biotinylated CCL22(G1) analogue (from UniProt O00626 25-93) (ligand) | 0.1 | 1 to 10 | 5.9 | –
2 | biotinylated CCL22(K66) analogue (ligand, Synthetic human CCL22 with one biotin; also called biotinylated h-MDC) GPYGANMEDSVCCRDYVRYRLPLRVVKHFYWTSDSCPRPGVVLLTFRDKEICADPRVPWVKMILNK(Biotin)LSQ | – | – | – | binds

Other lines, results leading:

Row | dose at which minimal migration is still detectable [1] [ng/mL] | dose for optimal migration of CCR4-transfected cells [1] [ng/mL] | MFI [2] | binding result [3] | Molecule
3 | 0.1 | 1 to 10 | 6.1 | – | biotinylated CCL22(K49) analogue (from UniProt O00626 25-93) (ligand)
4 | 0.1 | 1 to 10 | 6.6 | – | biotinylated CCL22(K61) analogue (from UniProt O00626 25-93) (ligand)
